Measured values published in patent publication US7558625B2, “Combined micro-channel generation and iontophoresis for transdermal delivery of pharmaceutical agents” (TransPharma Medical Ltd., priority 2004, dated 2009).

Experiments:
[1] = Transdermal delivery of hGH by ViaDerm and iontophoresis in anesthetized pigs, plasma hGH; assay type: in vivo; conditions: for hGH plasma levels: ViaDerm, Iontoph. × 5 Total 112.5 mg hGH
Description: ViaDerm applications were performed on 8 adjacent sites on the marginal ear of each of the pigs using 80 μm electrodes and 2 bursts.
2 groups of pigs (males, 10-15 kg, large white) were tested: • Group 1: SC (250 μg)—3 pigs (no. 3, 9 and 25). • Group 2: ViaDerm and then iontophoresis was applied 5 times, each iontophoresis patch contained 22.5 mg (22.5×5; total of 112.5 mg)—3 pigs (no. 19, 20 and 21). Results

[2] = Transdermal delivery of hGH by ViaDerm and iontophoresis in anesthetized rats, serum hGH (Elisa); assay type: in vivo; conditions: for Serum hGH levels: ViaDerm, Avg.; for AUC: serum hGH, 1.5 mg hGH patch
Description: Two groups of rats were tested. […] One group was connected to a power supply (constructed in house) and the other was not. The hGH loaded patch was connected to the negative pole of the power supply.
Rats (males, 300-325 gr, Sprague Dawley) were kept under anesthesia throughout the experiment. The following experimental groups were investigated: • Group 1—Passive delivery: 3 rats were treated with ViaDerm on two adjacent sites (total area 2.8 cm^2) over which the iontophoresis patch was placed. The reference electrode assembly was placed on a shaved intact skin on the back of the anal. The power supply was not turned on. • Group 2—Iontophoresis delivery: 3 rats were treated with ViaDerm on two adjacent sites (total area 2.8 cm^2) over which the iontophoresis patch was placed. The reference electrode assembly was placed on a shaved intact skin on the back of the animal. The power supply was turned on.
ViaDenm operating parameters: Burst length—700 μsec; Voltage—330V; Number of bursts—2; Two applications on the same skin area (150 pores/cm^2); Without current limitation; 80 μm diameter electrode arrays; Current density used: 0.18 mA/cm^2.
To detect hGH levels in serum—Elisa kit (DSL Inc. Webster, Tex., USA) was used.

[3] = pigs, ViaDerm and Iontophoresis group, 5 consecutive patches

## hGH: human growth hormone (Genotropin, Pharmacia and Upjohn)
[1]; pig19, 6 h
  hGH plasma levels: 13.34 ng/mL
[1]; pig19, 7 h
  hGH plasma levels: 9.63 ng/mL
[1]; pig19, 8 h
  hGH plasma levels: 4.03 ng/mL
[1]; pig19, 9 h
  hGH plasma levels: 4.08 ng/mL
[1]; pig19, 10 h
  hGH plasma levels: 3.32 ng/mL
[1]; pig19, 11 h
  hGH plasma levels: 1.42 ng/mL
[1]; pig19, 12 h
  hGH plasma levels: 1.38 ng/mL
[1]; pig20, 0 h
  hGH plasma levels: 0.06 ng/mL
[1]; pig20, 1 h
  hGH plasma levels: 7.01 ng/mL
[1]; pig20, 2 h
  hGH plasma levels: 22.45 ng/mL
[1]; pig20, 3 h
  hGH plasma levels: 26.93 ng/mL
[1]; pig20, 4 h
  hGH plasma levels: 31.04 ng/mL
[1]; pig20, 5 h
  hGH plasma levels: 28.21 ng/mL
[1]; pig20, 6 h
  hGH plasma levels: 22.09 ng/mL
[1]; pig20, 7 h
  hGH plasma levels: 44.00 ng/mL
[1]; pig20, 8 h
  hGH plasma levels: 10.69 ng/mL
[1]; pig20, 9 h
  hGH plasma levels: 8.98 ng/mL
[1]; pig20, 10 h
  hGH plasma levels: 6.49 ng/mL
[1]; pig20, 11 h
  hGH plasma levels: 4.91 ng/mL
[1]; pig20, 12 h
  hGH plasma levels: 5.01 ng/mL
[1]; pig21, 0 h
  hGH plasma levels: 0.08 ng/mL
[1]; pig21, 1 h
  hGH plasma levels: 2.68 ng/mL
[1]; pig21, 2 h
  hGH plasma levels: 10.38 ng/mL
[1]; pig21, 3 h
  hGH plasma levels: 24.52 ng/mL
[1]; pig21, 4 h
  hGH plasma levels: 28.87 ng/mL
[1]; pig21, 5 h
  hGH plasma levels: 44.93 ng/mL
[1]; pig21, 6 h
  hGH plasma levels: 34.25 ng/mL
[1]; pig21, 7 h
  hGH plasma levels: 33.54 ng/mL
[1]; pig21, 8 h
  hGH plasma levels: 28.93 ng/mL
[1]; pig21, 9 h
  hGH plasma levels: 24.89 ng/mL
[1]; pig21, 10 h
  hGH plasma levels: 22.46 ng/mL
[1]; pig21, 11 h
  hGH plasma levels: 17.86 ng/mL
[1]; pig21, 12 h
  hGH plasma levels: 9.00 ng/mL
[1]; pigs, Average, 0 h
  hGH plasma levels: 0.06 ng/mL
[1]; pigs, Average, 1 h
  hGH plasma levels: 6.03 ng/mL
[1]; pigs, Average, 2 h
  hGH plasma levels: 17.10 ng/mL
[1]; pigs, Average, 3 h
  hGH plasma levels: 25.32 ng/mL
[1]; pigs, Average, 4 h
  hGH plasma levels: 28.41 ng/mL
[1]; pigs, Average, 5 h
  hGH plasma levels: 32.80 ng/mL
[1]; pigs, Average, 6 h
  hGH plasma levels: 23.23 ng/mL
[1]; pigs, Average, 7 h
  hGH plasma levels: 29.06 ng/mL
[1]; pigs, Average, 8 h
  hGH plasma levels: 14.55 ng/mL
[1]; pigs, Average, 9 h
  hGH plasma levels: 12.65 ng/mL
[1]; pigs, Average, 10 h
  hGH plasma levels: 10.75 ng/mL
[1]; pigs, Average, 11 h
  hGH plasma levels: 8.06 ng/mL
[1]; pigs, Average, 12 h
  hGH plasma levels: 5.13 ng/mL
[1]; pigs, SC group
  average AUC value: 90.3 ng·h/mL
[1]; [3]
  AUC: 210.3 ng·h/mL
  Cmax: 32.8 ng/mL
  Tmax: 5 to 7 h
[1]; pigs, ViaDerm and Iontophoresis treated group
  skin irritation at the drug and the reference electrode: no irritation was observed
[2]
  AUC of ViaDerm and iontophoresis versus ViaDerm only (passive delivery): 3.5 fold
[2]; 0.18 mA/cm^2, end of experiment
  skin observation after removal of the iontophoretic patches: burn marks were seen at the contact area of the electrode
[2]; ViaDerm treated skin
  duration of hGH delivery: more than 6 hours
[2]; Passive Patch 1.5 mg hGH, 0 h
  Serum hGH levels: 0.1 ng/mL
[2]; Passive Patch 1.5 mg hGH, 0.75 h
  Serum hGH levels: 5.1 ng/mL
[2]; Passive Patch 1.5 mg hGH, 1.5 h
  Serum hGH levels: 14.0 ng/mL
[2]; Passive Patch 1.5 mg hGH, 2.25 h
  Serum hGH levels: 23.3 ng/mL
[2]; Passive Patch 1.5 mg hGH, 3 h
  Serum hGH levels: 40.8 ng/mL
[2]; Passive Patch 1.5 mg hGH, 6 h
  Serum hGH levels: 34.0 ng/mL
[2]; Patch 1.5 mg hGH + Iontophoresis, 0 h
  Serum hGH levels: 0.1 ng/mL
[2]; Patch 1.5 mg hGH + Iontophoresis, 0.75 h
  Serum hGH levels: 22.7 ng/mL
[2]; Patch 1.5 mg hGH + Iontophoresis, 1.5 h
  Serum hGH levels: 61.1 ng/mL
[2]; Patch 1.5 mg hGH + Iontophoresis, 2.25 h
  Serum hGH levels: 109.8 ng/mL
[2]; Patch 1.5 mg hGH + Iontophoresis, 3 h
  Serum hGH levels: 128.9 ng/mL
[2]; Patch 1.5 mg hGH + Iontophoresis, 6 h
  Serum hGH levels: 175.1 ng/mL
[2]; ViaDerm and iontophoresis
  AUC: 637 ng·h/mL
[2]; ViaDerm only (passive delivery)
  AUC: 182 ng·h/mL
